# System: Escherichia coli TOP10
# Assay: shrunken log2 fold change of peptide-encoding DNA abundance (4.5 h post-induction vs induction); higher = less antimicrobial activity (less host growth inhibition)
# Settings: time post-induction: 4.5 h; library: site-saturation at positions 5, 18, 19, 20
# 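Note: peptides expressed intracellularly from a pBAD plasmid library in pooled LB shake-flask culture, induced with 0.3% L-arabinose, DNA abundance read by NGS, three biological replicates, DESeq2 with apeglm shrinkage.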
row,Sequence,shrunken log2 fold change
1,RRIRLRPPRLPRPRPRPQFKPRP,-0.501
2,RRIRSRPPRLPRPRPRPCKTPRP,0.0503
3,RRIRYRPPRLPRPRPRPWGQPRP,0.00911
4,RRIRCRPPRLPRPRPRPYKGPRP,-0.153
5,RRIRGRPPRLPRPRPRPHGLPRP,0.211
6,RRIRERPPRLPRPRPRPRTQPRP,0.111
7,RRIRWRPPRLPRPRPRPFCEPRP,0.376
8,RRIRWRPPRLPRPRPRPWNRPRP,0.066
9,RRIRMRPPRLPRPRPRPQGPPRP,0.246
10,RRIRRRPPRLPRPRPRPRRWPRP,0.386
11,RRIRFRPPRLPRPRPRPSDGPRP,-0.391
12,RRIRTRPPRLPRPRPRPIFIPRP,-0.383
13,RRIRPRPPRLPRPRPRPGSAPRP,0.18
14,RRIRPRPPRLPRPRPRPAVEPRP,0.014
15,RRIRSRPPRLPRPRPRPIFNPRP,-0.317
16,RRIRDRPPRLPRPRPRPPYLPRP,-0.0541
17,RRIRGRPPRLPRPRPRPFMMPRP,-0.467
18,RRIRYRPPRLPRPRPRPTHNPRP,-0.702
19,RRIRRRPPRLPRPRPRPMDDPRP,0.211
20,RRIRRRPPRLPRPRPRPPELPRP,-0.0467
21,RRIRYRPPRLPRPRPRPDIFPRP,-0.032
22,RRIRERPPRLPRPRPRPTKQPRP,-0.275
23,RRIRRRPPRLPRPRPRPGQEPRP,0.777
24,RRIRMRPPRLPRPRPRPDHQPRP,0.143
25,RRIRFRPPRLPRPRPRPLHSPRP,0.12

row,Sequence,shrunken log2 fold change
1,RRIRYRPPRLPRPRPRPSTVPRP,-0.0902
2,RRIRYRPPRLPRPRPRPMQYPRP,-0.131
3,RRIRKRPPRLPRPRPRPWVMPRP,-0.251
4,RRIRYRPPRLPRPRPRPCSGPRP,-0.0198
5,RRIRTRPPRLPRPRPRPQCIPRP,-0.247
6,RRIRYRPPRLPRPRPRPAKLPRP,-0.194
7,RRIRSRPPRLPRPRPRPAAYPRP,0.269
8,RRIRTRPPRLPRPRPRPKWNPRP,0.0454
9,RRIRKRPPRLPRPRPRPKNSPRP,-0.0637
10,RRIRPRPPRLPRPRPRPWVFPRP,0.0691
11,RRIRHRPPRLPRPRPRPGIFPRP,-0.24
12,RRIRTRPPRLPRPRPRPTSTPRP,-0.0605
13,RRIRPRPPRLPRPRPRPLKHPRP,-0.221
14,RRIRFRPPRLPRPRPRPWSMPRP,-0.548
15,RRIRYRPPRLPRPRPRPCEEPRP,-0.156
16,RRIRHRPPRLPRPRPRPQEIPRP,-0.19
17,RRIRVRPPRLPRPRPRPKWQPRP,-0.0246
18,RRIRKRPPRLPRPRPRPGNFPRP,-0.373
19,RRIRCRPPRLPRPRPRPAGMPRP,0.104
20,RRIRCRPPRLPRPRPRPSPCPRP,-0.0417
21,RRIRERPPRLPRPRPRPVKLPRP,-0.0426
22,RRIRWRPPRLPRPRPRPGLTPRP,0.0693
23,RRIRNRPPRLPRPRPRPSECPRP,-0.272
24,RRIRWRPPRLPRPRPRPPHRPRP,0.321
25,RRIRWRPPRLPRPRPRPCWNPRP,0.11

row,Sequence,shrunken log2 fold change
1,RRIRIRPPRLPRPRPRPPRKPRP,0.0691
2,RRIRRRPPRLPRPRPRPRIEPRP,0.261
3,RRIRERPPRLPRPRPRPLMVPRP,-0.498
4,RRIRYRPPRLPRPRPRPGNRPRP,0.0823
5,RRIRCRPPRLPRPRPRPVDNPRP,-0.00721
6,RRIRNRPPRLPRPRPRPFRSPRP,0.033
7,RRIRNRPPRLPRPRPRPKMTPRP,-0.149
8,RRIRQRPPRLPRPRPRPQCHPRP,-0.0344
9,RRIRRRPPRLPRPRPRPSRYPRP,1.35
10,RRIRRRPPRLPRPRPRPESEPRP,0.0778
11,RRIRPRPPRLPRPRPRPKGKPRP,-0.135
12,RRIRNRPPRLPRPRPRPYQNPRP,0.0156
13,RRIRHRPPRLPRPRPRPYKPPRP,-0.466
14,RRIRNRPPRLPRPRPRPRTHPRP,-0.184
15,RRIRIRPPRLPRPRPRPYLTPRP,-1.45
16,RRIRLRPPRLPRPRPRPPFCPRP,0.701
17,RRIRIRPPRLPRPRPRPLHYPRP,-0.779
18,RRIRGRPPRLPRPRPRPDVVPRP,0.424
19,RRIRRRPPRLPRPRPRPFQMPRP,-0.138
20,RRIRDRPPRLPRPRPRPQVFPRP,-0.101
21,RRIRPRPPRLPRPRPRPPAKPRP,0.657
22,RRIRYRPPRLPRPRPRPHEKPRP,-0.00489
23,RRIRCRPPRLPRPRPRPMLIPRP,-0.552
24,RRIRRRPPRLPRPRPRPAELPRP,-0.0392
25,RRIRMRPPRLPRPRPRPKTSPRP,0.641
